Test results taken from the supplement of paper PMC10567573.
± gives the standard deviation.

Assay: protein stability index of a GFP-peptide fusion (GPS, HEK-293T) (PSI 1-6); higher = more stable
[1] = treatment: DMSO, c terminus: a fixed tail appended
[2] = treatment: MLN4924 1 uM, 8 h, c terminus: a fixed tail appended
[3] = treatment: DMSO, c terminus: native
[4] = treatment: MLN4924 1 uM, 8 h, c terminus: native
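Note: 24-mer peptide tiles fused after GFP, lentivirally expressed, FACS-sorted into six equal bins by GFP/DsRed ratio, decoded by Illumina sequencing, PSI is the read-weighted mean bin number.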

Sequence | protein stability index [1] | protein stability index [2] | protein stability index [3] | protein stability index [4]
GYPVSSAFAFQNTFPHSISAKNTS [SASS6] | 3.19 ± 0.43 | 3.37 ± 0.21 | – | –
DHPLPEVAHVKHLSASQKALKEKE [COX4I1] | 5.43 ± 0.18 | 5.47 ± 0.17 | – | –
KKLHEEELRDLQVSVESQQVQQVE [PRPH] | 4.13 ± 0.62 | 4.2 ± 0.13 | – | –
FVERVRKRGFEVVYMTEPIDEYCV [HSP90AB1] | – | 2.53 ± 0.26 | – | –
ASHQQQVLPPRQPSALVPSVTEYR [MYBL2] | 4.38 ± 0.28 | 4.37 ± 0.15 | – | –
LHPPVDDPQSGELPSERWNPTQNV [CDC34] | 5.02 ± 0.36 | 5.04 ± 0.32 | – | –
NESSLASTLKTLLFFTALMITVPI [VMA21] | 2.92 ± 0.19 | 3.07 ± 0.2 | – | –
ALLTGGGSENRNHRLLNMARNNND [RNF180] | 3.7 ± 0.41 | 3.76 ± 0.35 | – | –
APVPTHSTVSELSRSPVATATSC [DUSP5] | – | – | 2.72 ± 0.17 | 2.86 ± 0.13
IPAVSISYVVYENLKITLGVQSR [SLC25A25] | – | – | 3.19 ± 0.32 | 3.18 ± 0.36
LQKVLLMLVDGIDPNFKMEHQNKR [EHMT1] | 2.62 ± 0.73 | 2.38 ± 0.33 | – | –
ANMEDLTEVITASEFHPHHCNLFV [PPP2R2C] | 2.49 ± 0.3 | 2.41 ± 0.24 | – | –
VKQEEDIKPPPPLVLNSQQSDTLE [RAD54B] | 5.42 ± 0.22 | 5.39 ± 0.33 | – | –
LTQIDGTLSTIEFQREALENSHTN [CHMP4C] | 4.34 ± 0.25 | 4.57 ± 0.22 | – | –
IVHVEKEEVPEGMEEAAVASVVLP [BCL2L13] | 5.11 ± 0.16 | 5.07 ± 0.19 | – | –
PTYGRSFTLASSSDTRVGAPATGS [CHIT1] | 4.29 ± 0.25 | 4.12 ± 0.36 | – | –
QTLLGTAKMLLHEGQHPAQLRSDV [PYCR3] | 3.28 ± 0.094 | 3.16 ± 0.39 | – | –
RRHPQGAWKELDRNYLNYGEEGAP [CHGB] | 4.05 ± 0.28 | 4.1 ± 0.34 | – | –
DRFQVPTTEVNAWLVHRDPEGSVS [NFE2L1] | 3.842 ± 0.034 | 4.5 ± 0.063 | – | –
EEEEEEEDEDDDSADMDESDEDDE [FBXO3] | 5.37 ± 0.12 | 5.38 ± 0.15 | – | –
EAFTLMDQNRDGFIDKEDLKDTYA [MYL5] | 4.69 ± 0.25 | 4.88 ± 0.11 | – | –
VFEYCDHTLLNELERNPNGVADGV [CDKL4] | 3.89 ± 0.57 | 4.03 ± 0.55 | – | –

Sequence | protein stability index [1] | protein stability index [2] | protein stability index [3] | protein stability index [4]
SRLTPGGKAAQAGVAVGDWVLSID [PDLIM7] | 2.63 ± 0.29 | 3.02 ± 0.61 | – | –
CLFSLINGDDMFVTFAAMQAQQGR [MCOLN1] | 2.97 ± 0.47 | 2.74 ± 0.66 | – | –
HLNAIRGLPGSFIKEVQKGGPADL [PDZK1] | 3.56 ± 0.34 | 3.99 ± 0.19 | – | –
GAGLLSSISELKHALSGHAKVKPF [TPH1] | 2.86 ± 0.095 | 3.02 ± 0.12 | – | –
PESPGGTTTLEGSPSVPCIFCEEH [ZNF277] | 4.82 ± 0.3 | 4.82 ± 0.16 | – | –
HGPISEVLLIKDRTSKSRGFAFIT [RBMY1A1] | 2.83 ± 0.36 | 2.66 ± 0.91 | – | –
EIARREKELEARVRKPAEAERYKL [FLOT1] | 4.4 ± 0.1 | 4.45 ± 0.22 | – | –
PGRSALIVAVLCYINLLNYMDRFT [SPNS1] | 2.81 ± 0.88 | 3.44 ± 0.31 | – | –
NSEADQLGKIFDLIGLPPEDDWPR [CDK4] | 3.7 ± 0.35 | 3.92 ± 0.23 | – | –
TDDRIVVPQRGRSTRVPVASVLI [SPNS1] | – | – | 2.64 ± 0.13 | 2.82 ± 0.42
TPTPFFHTFAGDDCQAGLNFADED [WAS] | 4.86 ± 0.25 | 5 ± 0.07 | – | –
QSSLLETLYRNRSNLETIFRIIDS [PPEF2] | 2.17 ± 0.25 | 2.15 ± 0.1 | – | –
VVCRQLGLGFASNAFQETWYWHGD [LOXL2] | 2.55 ± 0.55 | 2.42 ± 0.31 | – | –
LDRLKVLMQVHASRSNNMGIVGGF [SLC25A25] | 2.25 ± 0.7 | 2.1 ± 0.36 | – | –
MQRPYDSRTCIGSSHSRGPLSWAP | 3.1 ± 0.31 | 2.94 ± 0.05 | – | –
NPVYYGPSDFFIGAVIEVFGHRFI [EFHC1] | 3.04 ± 0.7 | 2.44 ± 0.79 | – | –
LMGDESACIAYIRITQYLDAGGIP [CAMK2A] | 3.21 ± 0.89 | 2.77 ± 0.68 | – | –
RRHCQACRLKRCVDIGMMKEFILT [VDR] | 2.77 ± 0.72 | 2.15 ± 0.28 | – | –
LQRVLQNCPWPMSCPGSSYRTVVR [EMID1] | 2.49 ± 0.27 | 2.74 ± 0.74 | – | –
KKAPQPAKPRLAERMTTREKKVLE [HDAC6] | 4.58 ± 0.18 | 4.81 ± 0.39 | – | –
GSRAGASSFSDPFFVVETLCIIWF [KCNA3] | 3.04 ± 0.93 | 2.53 ± 0.75 | – | –
GHVEMVNLLLAKGANINAFDKKDR [ANKRD44] | 3.41 ± 0.19 | 3.38 ± 0.3 | – | –

Sequence | protein stability index [1] | protein stability index [2] | protein stability index [3] | protein stability index [4]
VYSWPKNKKNILLRLLREEEYVAP [TRAF3IP2] | 2.11 ± 0.68 | 2.5 ± 0.59 | – | –
GSEMGLSSHLQSSKAGPTRIFTSN [KLHL13] | 3.78 ± 0.17 | 3.77 ± 0.23 | – | –
VSTKEQILDLLVLEQFLSILPKEL [ZSCAN9] | 3.21 ± 0.93 | 3.02 ± 0.65 | – | –
SRFISANLPCNKFKNRLVNIMPYE [PTPRD] | 2.13 ± 0.42 | 1.98 ± 0.13 | – | –
DFLCLLGVSYTFDNEDSELNGDYG [MIA2] | 2.24 ± 0.39 | 2.34 ± 0.44 | – | –
GYLDYRKKAIKDLGISPSTCSFNP [GLT8D2] | 2.85 ± 0.22 | 2.89 ± 0.34 | – | –
GKVLGKGGFAKCYEMTDLTNNKVY [PLK2] | 2.73 ± 0.11 | 2.87 ± 0.34 | – | –
RLCRLAGASSPAAYDEALAELHAH [ZSWIM9] | 3.29 ± 0.36 | 3.33 ± 0.2 | – | –
TISEFILSEDYNKMTPVKNYQAHQ [WDFY2] | 2.66 ± 0.16 | 2.78 ± 0.14 | – | –
APTKPHDYRQEQPETFWIQRAPQL [SPAG8] | 3.61 ± 0.11 | 3.73 ± 0.19 | – | –
RRLGLSTLGELKQNLSRSWHDVQV [TPD52L2] | 2.9 ± 0.24 | 2.96 ± 0.24 | – | –
FLMRKCGWFVRELRVEFAAENYLS [FBXO33] | 3.06 ± 0.59 | 2.8 ± 0.35 | – | –
VEIVKSDFHKPFLGGFRHKVTGVE [IQUB] | 2.17 ± 0.23 | 2.5 ± 0.39 | – | –
GHSPARAGKQRMKEKEQENERKVA [DDIT3] | 5.39 ± 0.4 | 5.43 ± 0.37 | – | –
CPVPAHRRGSWRLPYTDGLSWELL [CTBP1-DT] | 2.49 ± 0.34 | 2.59 ± 0.31 | – | –
HSRKTVLIKTIETRNGEVVTESQK [PRPH] | 4.71 ± 0.27 | 4.8 ± 0.32 | – | –
FFVITMIKIVLINSFGAILQGSLF [SLC29A1] | 3.36 ± 0.093 | 2.99 ± 0.12 | – | –
DSAQVARLWGIRKNRPAMNYDKLS [SPDEF] | 3.24 ± 0.22 | 3.35 ± 0.23 | – | –
QTSSSTFGGGSTRGGSLLAGGGGF [KRT15] | 3.57 ± 0.17 | 3.7 ± 0.23 | – | –
FFLFIGVILFSSAVYFAEAEEAES [KCNA1] | 2.81 ± 0.18 | 2.78 ± 0.34 | – | –
SNVRWDHESVCKYYLCGFCPAELF [LUC7L3] | 2.25 ± 0.37 | 2.29 ± 0.34 | – | –
